These are literature values, as cited in publication PMC10461426.

Like-named read-outs stand apart in the source and are kept apart here.

The target of data set [1] is IL-1R1 (Homo sapiens) (UniProt P14778).
For data set [2] the target is unchanged. This is another data set of the same source.
For data set [3] the target is unchanged. The source holds these as a separate data set.

For the substance IL-1beta (from UniProt P01584), the Kd in the data set with IL-1R1 (Homo sapiens) [1] was 0.021 µM.

As for IL-1Ra (from UniProt P18510), in the data set with IL-1R1 (Homo sapiens) [2], the Kd is 0.038 µM.

Regarding IL-38 (from UniProt Q8WWZ1), the Kd with IL-1R1 (Homo sapiens) [3] is 0.093 µM.
